{
  "source": "paper PMC12298160",
  "about": "“Integrated Transcriptomic and Proteomic Analyses Reveal CsrA-Mediated Regulation of Virulence and Metabolism in Vibrio alginolyticus”",
  "biological_target": "CsrA (6xHis-CsrA) (UniProt A0A2I3CA03 1-65)",
  "experiment": "EMSA; high affinity",
  "conditions": "protein: recombinant; tags: 6xHis (named 6xHis-CsrA); chain copies: 2; label: biotin",
  "data": [
    {"binder": "rraA -64 to +36 RNA (ssRNA) RNA: AAGGUAUAGAAAAGGAUACUGCUCACUGAAGCAACGCUUGGGUGAGAAAAUUCACGGAGGAAAUAUGAGAGACAUUACACCCGAUAUUUGUGACCAAUUU", "values": [
      {"measurement": "binding result", "result": "binds"}
    ]}
  ]
}
